Experimental data from patent publication US20250011438A1 (INSTITUTE FOR BASIC SCIENCE, published 2025).
Numbering of substitutions follows the chain as printed.

B1: mouse anti-Tie2 antibody 3H7 (antibody, V domains shown)
VH: QVQLQQPGAELVRPGASVKLSCKASGYSFTSYWMNWVKQRPGQGLEWIGMIHPSDSETRLNQKFMDKATLTVDKSSSTAYMQLSSPTSEDSAVYYCARGLYGNSWGQGTLVTVSA
VL: DIQMTQSPSSLSASLGERVSLTCRASQDIGISLNWLQQEPDGTIKRLIYATSSLDSGVPKRFSGSRSGSDYSLTISSLESEDFVDYYCLQYASSPYTFGGGTKLEIK
B2: mouse anti-Tie2 antibody 11C4 (antibody, V domains shown)
VH: QVQLQQPGADLVRPGASVTLSCKASGYSFTSYWMNWVKQRPGQGLEWIGMIHPSDSETRLNQKFKDKATLTVDKSSSTAYMQLRSPTSEDSAVYYCAGLTIYFDYWGQGTTLTVSS
VL: B1 VL
B3: mouse anti-Tie2 antibody 4A4 (antibody, V domains shown)
VH: B1 VH with M65K, L100Y, G102F, N103D, S104Y, L110T, V111L, A115S
VL: B1 VL with S63T, A92V, Y96W
B4: mouse anti-Tie2 antibody 3B2 (antibody, V domains shown)
VH: B1 VH with M65K, M81L, L100N, G102F, N103D, S104C, L110T, V111L, A115S
VL: B1 VL with S53I, Y96W
B5: mouse anti-Tie2 antibody 3E12 (antibody, V domains shown)
VH: B1 VH with E10D, M65K, R98K, L100Y, G102F, N103G, S104Y, L110T, V111L, A115S
VL: B1 VL with S53N, Y96P
B6: humanized anti-Tie2 antibody 3H7H11G4 (antibody, V domains shown)
VH: QVQLVQSGAEVKKPGASVKVSCKASGYTFTSYWMNWVRQAPGQGLEWMGMIHPSDSETRLNQKFMDRVTMTRDTSTSTVYMELSSLRSEDTAVYYCARGLYGNSWGQGTLVTVSS
VL: DIQMTQSPSSLSASVGDRVTITCRASQDIGISLNWYQQKPGKAPKRLIYATSSLDSGVPSRFSGSGSGTEFTLTISSLQPEDFATYYCLQYASSPYTFGQGTKVEIK
B7: humanized anti-Tie2 antibody 3H7H12G4 (antibody, V domains shown)
VH: B6 VH
VL: B6 VL with Y36L, K39E, S60K
B8: humanized anti-Tie2 antibody 3H7H21G4 (antibody, V domains shown)
VH: B6 VH with A40R, M48I
VL: B6 VL
B9: humanized anti-Tie2 antibody 3H7H22G4 (antibody, V domains shown)
VH: B6 VH with A40R, M48I
VL: B6 VL with Y36L, K39E, S60K

Molecular target: T1, recombinant human Tie2 Ig3-FNIII(1-3) domains (human, UniProt Q02763 349-738)
T1 construct: also called hTie2-Ig3-FNIII(1-3)
Assay: stated in the HDX-MS sample preparation; how it was measured is not given; HDX-MS sample preparation; hTie2-Ig3-FNIII(1-3) fragment in deuterium labeling buffer; assay not given

T1 sequence (Q02763 349-738 limits assumed): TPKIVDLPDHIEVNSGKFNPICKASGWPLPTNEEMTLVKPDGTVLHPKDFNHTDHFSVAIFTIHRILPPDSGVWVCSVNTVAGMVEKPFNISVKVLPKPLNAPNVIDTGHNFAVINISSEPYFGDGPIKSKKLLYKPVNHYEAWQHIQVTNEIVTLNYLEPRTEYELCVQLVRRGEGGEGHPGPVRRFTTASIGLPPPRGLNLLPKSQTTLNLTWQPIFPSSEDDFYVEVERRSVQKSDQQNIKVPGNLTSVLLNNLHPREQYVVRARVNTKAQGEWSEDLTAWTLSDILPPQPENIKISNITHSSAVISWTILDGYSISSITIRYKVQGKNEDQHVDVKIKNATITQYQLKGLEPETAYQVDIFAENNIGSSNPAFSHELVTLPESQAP

For B1, the Kd was 25 nM.

Molecular target: T2, human Tie2 (hTie2), as immobilised in the Octet assay of Example 1.4 (human, UniProt Q02763 349-738, limits assumed)
T2 construct: The protein used was probably a soluble recombinant form, possibly hTie2-Ig3-FNIII(1-3)
Assay: BLI (Octet), hTie2 immobilised on AR2G sensor, antibody as analyte, 1:1 global fit
Method: (§1) The affinity of mouse monoclonal antibody against hTie2 was measured using Octet® system (ForteBio) where Black 96-well plates (96 well F-type black plates, Greiner) were used. […] After the hydration, hTie2 was diluted in 10 mM sodium acetate, pH 6.0 buffer at a concentration of 10 μg/ml, fixed on AR2G biosensor, and blocked with 1M ethanolamine. The mouse monoclonal anti-Tie2 antibodies were diluted to 50, 25, 12.5, 6.25, 3.125, and 0 nM with 1× kinetic buffer, and subjected to association for 300 seconds and dissociation for 900 seconds.

T2 sequence (Q02763 349-738 limits assumed): as above

First: B2
Second: B3
The Kd of the first is 2-fold higher: 0.215 nM for the first, 0.105 nM for the second. The second binds more tightly here.

First: B4
Second: B5
The Kd of the first is lower: under 0.001 nM for the first, 0.251 nM for the second. The first binds more tightly here.

B1 gave a Kd of 0.0556 nM.

First: B2
Second: B3
The koff of the first is 5.9-fold higher: 0.000327 s⁻¹ for the first, 5.53e-05 s⁻¹ for the second.

First: B4
Second: B5
The koff of the first is lower: under 1e-07 s⁻¹ for the first, 9.12e-05 s⁻¹ for the second.

Work on B1 yielded a koff of 2.13e-05 s⁻¹.

First: B2
Second: B3
The kon of the first is 2.9-fold higher: 1.52e+06 M⁻¹ s⁻¹ for the first, 525000 M⁻¹ s⁻¹ for the second.

B4 and B5 are within 1.5-fold of each other in kon: 444000 M⁻¹ s⁻¹ for the first, 363000 M⁻¹ s⁻¹ for the second.

B1 showed a kon of 384000 M⁻¹ s⁻¹.

Molecular target: T1, recombinant human Tie2 Ig3-FNIII(1-3) …
Assay: BLI (Octet), antibody immobilised on AR2G sensor, recombinant hTie2 as analyte, 1:1 global fit
Method: as §1, with “of humanized anti-Tie2” for “of mouse monoclonal”, “hydration, humanized anti-Tie2 antibody” for “hydration, hTie2”, “The recombinant hTie2 was” for “The mouse monoclonal anti-Tie2 antibodies were”, “300 sec” for “300 seconds”, “900 sec.” for “900 seconds.”

First: B1
Second: B6
The Kd of the first is 280-fold lower: 0.0269 nM for the first, 7.47 nM for the second.

First: B7
Second: B8
The Kd of the first is 15-fold higher: 96.5 nM for the first, 6.59 nM for the second.

B9 was tested, and the Kd was 39.7 nM.

First: B1
Second: B6
The koff of the first is 44-fold lower: 1.05e-05 s⁻¹ for the first, 0.000467 s⁻¹ for the second.

First: B7
Second: B8
The koff of the first is 1.9-fold higher: 0.000999 s⁻¹ for the first, 0.000517 s⁻¹ for the second.

With B9 the koff was 0.000656 s⁻¹.

First: B1
Second: B6
The kon of the first is 8.9-fold higher: 558000 M⁻¹ s⁻¹ for the first, 62600 M⁻¹ s⁻¹ for the second.

Compared with B7, B8 is 7.5-fold higher in kon: 10400 M⁻¹ s⁻¹ for the first, 78500 M⁻¹ s⁻¹ for the second.

In the case of B9, the kon is reported as 16500 M⁻¹ s⁻¹.
